# Assay results from patent publication US20080248043A1.
# Experiments:
# [1] = target: antigen of Table 4 (native or denatured; not named); assay: denatured conditions; 10 µg/ml
# [2] = target: antigen of Table 4 (native or denatured; not named); assay: native conditions; dilution 1:5
# [3] = target: antigen of Table 4 (native or denatured; not named); assay: native conditions; 10 µg/ml
substance,measurement,setting,value
Cont,OD (read-out not given),[1],0.146
same,OD (read-out not given),[2],0.052
same,OD (read-out not given),[3],0.738
